Test results reported in paper PMC3909184.

Molecular target: CXCR4 (human) (UniProt P61073)
Sequence of UniProt P61073 (P61073 whole entry): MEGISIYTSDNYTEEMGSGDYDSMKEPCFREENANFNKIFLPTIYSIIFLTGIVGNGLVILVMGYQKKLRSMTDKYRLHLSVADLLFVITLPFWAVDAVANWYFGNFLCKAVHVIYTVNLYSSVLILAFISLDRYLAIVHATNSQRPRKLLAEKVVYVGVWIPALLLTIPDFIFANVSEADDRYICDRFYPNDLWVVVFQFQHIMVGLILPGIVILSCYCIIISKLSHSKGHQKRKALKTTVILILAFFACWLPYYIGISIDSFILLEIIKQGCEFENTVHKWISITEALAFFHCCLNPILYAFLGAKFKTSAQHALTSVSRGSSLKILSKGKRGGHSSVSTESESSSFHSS

- EC50 of Kir3* K+ current activation (TEVC, -50 mV) in Xenopus oocytes co-expressing CXCR4 and Kir3.1* or Kir3.4*; dose-response: 23 nM
Substance: WT CXCL12 (from UniProt P48061 22-93) (ligand)
